These results are taken from article PMC11088703, “Structural basis of human NOX5 activation” (Nature Communications, 2024).

Data set [1] deals with the molecule itself. The experiment in a line: cryo-EM structure; purified NOX5 in 0.05% digitonin; pre-reaction (5 mM EGTA + 1 mM NADPH), intermediate (1 mM CaCl2 + 1 mM NADPH) and post-reaction (1 mM CaCl2 + 1.2 mM NADP+ + 60 uM FAD) states; C2 symmetry imposed.
Data set [2] concerns the molecule itself. The experiment in a line: SEC; Trp fluorescence-based gel filtration; Superose 6 Increase; 20 mM Tris pH 8.0, 200 mM NaCl, 0.004% LMNG/CHS; excitation 280 nm, emission 350 nm.

B1: full-length human NADPH oxidase 5 (NOX5), NOX5-β variant (enzyme, UniProt Q96PH1-4 1-719, looked up)
chain: MSAEEDARWLRWVTQQFKTIAGEDGEISLQEFKAALHVKESFFAERFFALFDSDRSGTITLQELQEALTLLIHGSPMDKLKFLFQVYDIDGSGSIDPDELRTVLQSCLRESAISLPDEKLDQLTLALFESADADGNGAITFEELRDELQRFPGVMENLTISAAHWLTAPAPRPRPRRPRQLTRAYWHNHRSQLFCLATYAGLHVLLFGLAASAHRDLGASVMVAKGCGQCLNFDCSFIAVLMLRRCLTWLRATWLAQVLPLDQNIQFHQLMGYVVVGLSLVHTVAHTVNFVLQAQAEASPFQFWELLLTTRPGIGWVHGSASPTGVALLLLLLLMFICSSSCIRRSGHFEVFYWTHLSYLLVWLLLIFHGPNFWKWLLVPGILFFLEKAIGLAVSRMAAVCIMEVNLLPSKVTHLLIKRPPFFHYRPGDYLYLNIPTIARYEWHPFTISSAPEQKDTIWLHIRSQGQWTNRLYESFKASDPLGRGSKRLSRSVTMRKSQRSSKGSEILLEKHKFCNIKCYIDGPYGTPTRRIFASEHAVLIGAGIGITPFASILQSIMYRHQKRKHTCPSCQHSWIEGVQDNMKLHKVDFIWINRDQRSFEWFVSLLTKLEMDQAEEAQYGRFLELHMYMTSALGKNDMKAIGLQMALDLLANKEKKDSITGLQTRTQPGRPDWSKVFQKVAAEKKGKVQVFFCGSPALAKVLKGHCEKFGFRFFQENF
notes: NADPH oxidase 5, human, NOX5-β variant (called v2 isoform in the methods); full length; a Zn2+ is modelled between the two CXXC motifs at the dimer interface; also called NOX5 v2 isoform; hNOX5; source: HEK293F, BacMam virus, purified (GFP-nanobody beads, preScission cleavage, Superose 6 SEC in digitonin); not shown: GFP, N-terminal, cleaved
Take B1: the “stoichiometry N” value in data set [1] was 2.

B2: NOX5 R531A (enzyme, human, UniProt Q96PH1-4 1-719, looked up)
chain: MSAEEDARWLRWVTQQFKTIAGEDGEISLQEFKAALHVKESFFAERFFALFDSDRSGTITLQELQEALTLLIHGSPMDKLKFLFQVYDIDGSGSIDPDELRTVLQSCLRESAISLPDEKLDQLTLALFESADADGNGAITFEELRDELQRFPGVMENLTISAAHWLTAPAPRPRPRRPRQLTRAYWHNHRSQLFCLATYAGLHVLLFGLAASAHRDLGASVMVAKGCGQCLNFDCSFIAVLMLRRCLTWLRATWLAQVLPLDQNIQFHQLMGYVVVGLSLVHTVAHTVNFVLQAQAEASPFQFWELLLTTRPGIGWVHGSASPTGVALLLLLLLMFICSSSCIRRSGHFEVFYWTHLSYLLVWLLLIFHGPNFWKWLLVPGILFFLEKAIGLAVSRMAAVCIMEVNLLPSKVTHLLIKRPPFFHYRPGDYLYLNIPTIARYEWHPFTISSAPEQKDTIWLHIRSQGQWTNRLYESFKASDPLGRGSKRLSRSVTMRKSQRSSKGSEILLEKHKFCNIKCYIDGPYGTPTRAIFASEHAVLIGAGIGITPFASILQSIMYRHQKRKHTCPSCQHSWIEGVQDNMKLHKVDFIWINRDQRSFEWFVSLLTKLEMDQAEEAQYGRFLELHMYMTSALGKNDMKAIGLQMALDLLANKEKKDSITGLQTRTQPGRPDWSKVFQKVAAEKKGKVQVFFCGSPALAKVLKGHCEKFGFRFFQENF
notes: NADPH oxidase 5, human, NOX5-β variant (v2 isoform in the methods; UniProt Q96PH1-4), point mutant; source: HEK293F, purified with the same protocol as NOX5 wild type (GFP-nanobody beads, preScission cleavage); not shown: GFP, N-terminal, cleaved
B2: in data set [2], the binding result is recorded as “binds”.

B3: NOX5 R530A (enzyme, human, UniProt Q96PH1-4 1-719, looked up)
chain: MSAEEDARWLRWVTQQFKTIAGEDGEISLQEFKAALHVKESFFAERFFALFDSDRSGTITLQELQEALTLLIHGSPMDKLKFLFQVYDIDGSGSIDPDELRTVLQSCLRESAISLPDEKLDQLTLALFESADADGNGAITFEELRDELQRFPGVMENLTISAAHWLTAPAPRPRPRRPRQLTRAYWHNHRSQLFCLATYAGLHVLLFGLAASAHRDLGASVMVAKGCGQCLNFDCSFIAVLMLRRCLTWLRATWLAQVLPLDQNIQFHQLMGYVVVGLSLVHTVAHTVNFVLQAQAEASPFQFWELLLTTRPGIGWVHGSASPTGVALLLLLLLMFICSSSCIRRSGHFEVFYWTHLSYLLVWLLLIFHGPNFWKWLLVPGILFFLEKAIGLAVSRMAAVCIMEVNLLPSKVTHLLIKRPPFFHYRPGDYLYLNIPTIARYEWHPFTISSAPEQKDTIWLHIRSQGQWTNRLYESFKASDPLGRGSKRLSRSVTMRKSQRSSKGSEILLEKHKFCNIKCYIDGPYGTPTARIFASEHAVLIGAGIGITPFASILQSIMYRHQKRKHTCPSCQHSWIEGVQDNMKLHKVDFIWINRDQRSFEWFVSLLTKLEMDQAEEAQYGRFLELHMYMTSALGKNDMKAIGLQMALDLLANKEKKDSITGLQTRTQPGRPDWSKVFQKVAAEKKGKVQVFFCGSPALAKVLKGHCEKFGFRFFQENF
notes: as for B2
Take B3: the binding result in data set [2] is on record as “binds”.

B4: NOX5 R426A (enzyme, human, UniProt Q96PH1-4 1-719, looked up)
chain: MSAEEDARWLRWVTQQFKTIAGEDGEISLQEFKAALHVKESFFAERFFALFDSDRSGTITLQELQEALTLLIHGSPMDKLKFLFQVYDIDGSGSIDPDELRTVLQSCLRESAISLPDEKLDQLTLALFESADADGNGAITFEELRDELQRFPGVMENLTISAAHWLTAPAPRPRPRRPRQLTRAYWHNHRSQLFCLATYAGLHVLLFGLAASAHRDLGASVMVAKGCGQCLNFDCSFIAVLMLRRCLTWLRATWLAQVLPLDQNIQFHQLMGYVVVGLSLVHTVAHTVNFVLQAQAEASPFQFWELLLTTRPGIGWVHGSASPTGVALLLLLLLMFICSSSCIRRSGHFEVFYWTHLSYLLVWLLLIFHGPNFWKWLLVPGILFFLEKAIGLAVSRMAAVCIMEVNLLPSKVTHLLIKRPPFFHYAPGDYLYLNIPTIARYEWHPFTISSAPEQKDTIWLHIRSQGQWTNRLYESFKASDPLGRGSKRLSRSVTMRKSQRSSKGSEILLEKHKFCNIKCYIDGPYGTPTRRIFASEHAVLIGAGIGITPFASILQSIMYRHQKRKHTCPSCQHSWIEGVQDNMKLHKVDFIWINRDQRSFEWFVSLLTKLEMDQAEEAQYGRFLELHMYMTSALGKNDMKAIGLQMALDLLANKEKKDSITGLQTRTQPGRPDWSKVFQKVAAEKKGKVQVFFCGSPALAKVLKGHCEKFGFRFFQENF
notes: as for B2
For the protein B4, the binding result in data set [2] was “binds”.
